Our source for the IC50 values is US20200399314A1 (MEDIKINE, published 2020).

Bridge positions count the residues as written; N and C are the ends. Ends that are not written are not given here. Some results are limits rather than exact numbers.

First the molecules themselves.
T1: human IL-2Rα subunit (human, UniProt P01589 22-213, limits assumed)
T1 construct: also called CD25
T1 sequence (looked up): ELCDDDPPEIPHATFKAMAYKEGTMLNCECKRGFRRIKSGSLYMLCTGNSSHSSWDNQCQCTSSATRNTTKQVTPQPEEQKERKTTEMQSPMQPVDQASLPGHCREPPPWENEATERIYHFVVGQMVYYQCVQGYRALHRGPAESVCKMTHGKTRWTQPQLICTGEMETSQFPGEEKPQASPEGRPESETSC

B1: SEQ ID NO 179 (peptide)
peptide: AGCMLLKPGLYWECIF
B2: SEQ ID NO 201 (peptide)
peptide: RCRLQKAGGNTWECI
B3: SEQ ID NO 178 (peptide)
peptide: QRCQLSWSGGELGCMF
modifications: disulfide 3-14 (inferred)
B4: SEQ ID NO 199 (peptide)
peptide: KCRLRQMSRGGWECL
B5: SEQ ID NO 192 (peptide)
peptide: SSCTLFNPGTGWTCVF
B6: SEQ ID NO 19 (peptide)
peptide: FVLCGLQGCRGS
B7: SEQ ID NO 198 (peptide)
peptide: ACWRSWRYPTRTFCS
B8: SEQ ID NO 211 (peptide)
peptide: VRCRVLYPGQMAVCVS
B9: SEQ ID NO 188 (peptide)
peptide: PSCRLWNPGFGWECIF
B10: SEQ ID NO 163 (peptide)
peptide: RGCSLRFAEAWECIF
B11: SEQ ID NO 166 (peptide)
peptide: GRCHLVWSDRWECIF
B12: SEQ ID NO 212 (peptide)
peptide: VTCYRAVPGVEAYCFS
B13: SEQ ID NO 187 (peptide)
peptide: NTCKLFRSGNIWQCIF
B14: SEQ ID NO 169 (peptide)
peptide: GCTLKWESPNWTCY
B15: SEQ ID NO 180 (peptide)
peptide: ARCSLHHTGSRYECIF
B16: SEQ ID NO 183 (peptide)
peptide: KGCTLQNPGSGWVCLF
B17: SEQ ID NO 191 (peptide)
peptide: SKCHLIVSGKFHECVF
B18: SEQ ID NO 164 (peptide)
peptide: ASCSLVWQDSWVCIF
B19: SEQ ID NO 174 (peptide)
peptide: GCVLQFSGVWWECV
modifications: disulfide 2-13 (inferred)
B20: SEQ ID NO 203 (peptide)
peptide: TCRLKRSGPNSWECI
B21: SEQ ID NO 190 (peptide)
peptide: SACTPNWTGRWWECVF
modifications: disulfide 3-14 (inferred)
B22: SEQ ID NO 171 (peptide)
peptide: GCSLMWQDGWWVCI
B23: SEQ ID NO 185 (peptide)
peptide: NGCTLSFSGMSWTCVY
modifications: disulfide 3-14 (inferred)
B24: SEQ ID NO 189 (peptide)
peptide: QSCTLQRLGHLYQCWF
B25: SEQ ID NO 173 (peptide)
peptide: GCMLTRGKFWWECI
B26: SEQ ID NO 186 (peptide)
peptide: NSCILSNPGLGWQCVF
B27: SEQ ID NO 15 (peptide)
peptide: FVPWDEYFLQIL
B28: SEQ ID NO 172 (peptide)
peptide: GCTLSWNQGWWHCV
B29: SEQ ID NO 181 (peptide)
peptide: ATCMLRLLGDGWGCVF
B30: SEQ ID NO 213 (peptide)
peptide: VYCRREKPGGEMHCRS
B31: SEQ ID NO 204 (peptide)
peptide: TCTVHRIGLAEWECV
modifications: disulfide 2-14 (inferred)
B32: SEQ ID NO 217 (peptide)
peptide: ATCHLLAPGVDNTCIF
B33: SEQ ID NO 20 (peptide)
peptide: KVICGWDGCR
B34: SEQ ID NO 162 (peptide)
peptide: RGCTLAWEDSWVCIF
modifications: disulfide 3-13 (inferred)
B35: SEQ ID NO 195 (peptide)
peptide: TRCRLLKLGSLWECFG
B36: SEQ ID NO 182 (peptide)
peptide: GPCRLSNPGTGWECIF
modifications: disulfide 3-14 (inferred)
B37: SEQ ID NO 194 (peptide)
peptide: THCLVQWPGPVVACRS
B38: SEQ ID NO 209 (peptide)
peptide: VRCFMSEPGRVSYCTA
B39: SEQ ID NO 200 (peptide)
peptide: NCRVRHLPYPFWSCL
B40: SEQ ID NO 208 (peptide)
peptide: VKCKLVNPGSGWACHF
modifications: disulfide 3-14 (inferred)
B41: SEQ ID NO 184 (peptide)
peptide: LACILSKPGEHWECLF
B42: SEQ ID NO 202 (peptide)
peptide: RCTLRFDAQTGWECN
B43: SEQ ID NO 210 (peptide)
peptide: VRCRLARPGLTWECLS
B44: SEQ ID NO 165 (peptide)
peptide: SRCSLVWADSWVCIF
B45: SEQ ID NO 193 (peptide)
peptide: STCRMGNPGGVWGCYF
modifications: disulfide 3-14 (inferred)
B46: SEQ ID NO 218 (peptide)
peptide: HGCTLTKPGAEWVCSF
B47: SEQ ID NO 170 (peptide)
peptide: SCTVRWDGDWWVCE

This assay has as its target T1, human IL-2Rα subunit.
As to B1, the IC50 was below 100 µM. In the case of B2 it was below 100 µM; in that of B3, below 100 µM. In the case of B4 it was below 100 µM; in that of B5, below 100 µM. In the case of B6 it was below 100 µM; in that of B7, below 100 µM. Regarding B8, the IC50 was below 100 µM.

As for B9, the half-inhibitory concentration (IC50) was below 100 µM.

B10 displayed an IC50 below 100 µM. In the case of B11 it was below 100 µM; in that of B12, below 100 µM; in that of B13, below 100 µM. B14 had an IC50 below 100 µM. The same measure for B15: below 100 µM; for B16: below 100 µM. In the case of B17 it was below 100 µM. B18: the IC50 is below 100 µM. In turn, B19 came in with a 50% inhibitory concentration (IC50) below 100 µM. The molecule B20 came in with an IC50 below 100 µM.

As for B21, the 50% inhibitory concentration (IC50) is below 100 µM. In the case of B22 it was below 100 µM; in that of B23, below 100 µM. In the case of B24 it was below 100 µM; in that of B25, below 100 µM; in that of B26, below 100 µM. Turning to B27, the IC50 was below 100 µM. In the case of B28 it was below 100 µM; in that of B29, below 100 µM; in that of B30, below 100 µM. In turn, B31 gave an IC50 below 100 µM. The same measure for B32: below 100 µM; for B33: below 100 µM. The same measure for B34: below 100 µM. Molecule B35 yielded an IC50 below 100 µM. The same measure for B36: below 100 µM; for B37: below 100 µM; for B38: below 100 µM.

B39 registered an IC50 below 100 µM. B40: the IC50 was below 100 µM. As to B41, the IC50 was below 100 µM.

With B42, the IC50 was below 100 µM. The same measure for B43: below 100 µM; for B44: below 100 µM; for B45: below 100 µM. B46 returned an IC50 below 100 µM. The same measure for B47: below 100 µM.
